# According to patent US20190062420A1 (Janssen / Centocor, published 2019):
# B1: OX40SF2IgG2sigma_R2BS29_LC-N (bispecific antibody)
# heavy: QVQLVQSGAEVKKPGSSVKVSCKASGYTFKDYTMHWVRQAPGQGLEWIGGIYPNNGGSTYNQNFKDRVTLTADKSTSTAYMELSSLRSEDTAVYYCARMGYHGPHLDFDVWGQGTTVTVSSASTKGPSVFPLAPCSRSTSESTAALGCLVKDYFPEPVTVSWNSGALTSGVHTFPAVLQSSGLYSLSSVVTVPSSNFGTQTYTCNVDHKPSNTKVDKTVERKCCVECPPCPAPPAAASSVFLFPPKPKDTLMISRTPEVTCVVVDVSAEDPEVQFNWYVDGVEVHNAKTKPREEQFNSTFRVVSVLTVLHQDWLNGKEYKCKVSNKGLPSSIEKTISKTKGQPREPQVYTLPPSREEMTKNQVSLTCLVKGFYPSDIAVEWESNGQPENNYKTTPPMLDSDGSFFLYSKLTVDKSRWQQGNVFSCSVMHEALHNHYTQKSLSLSPGK
# light: LPAPKNLVVSRVTEDSARLSWTAPDAAFDSFPIYYWEYRVGGEAIVLTVPGSERSYDLTGLKPGTEYFVYINGVKGGEESRPLSAIFTTGGGGSGGGGSGGGGSGGGGSDIQMTQSPSSLSASVGDRVTITCKASQDVGAAVAWYQQKPGKAPKLLIYWASTRHTGVPSRFSGSGSGTDFTLTISSLQPEDFATYYCQQYINYPLTFGGGTKVEIKRTVAAPSVFIFPPSDEQLKSGTASVVCLLNNFYPREAKVQWKVDNALQSGNSQESVTEQDSKDSTYSLSSTLTLSKADYEKHKVYACEVTHQGLSSPVTKSFNRGEC
# notes: mAbtyrin: R2BS29 FN3 domain and linker at the N-terminus of the light chain of OX40SF2IgG2sigma; also called mAbtyrin
# B2: OX40SF2IgG1_R2BS29_HC-C (bispecific antibody)
# heavy: not shown
# light: DIQMTQSPSSLSASVGDRVTITCKASQDVGAAVAWYQQKPGKAPKLLIYWASTRHTGVPSRFSGSGSGTDFTLTISSLQPEDFATYYCQQYINYPLTFGGGTKVEIKRTVAAPSVFIFPPSDEQLKSGTASVVCLLNNFYPREAKVQWKVDNALQSGNSQESVTEQDSKDSTYSLSSTLTLSKADYEKHKVYACEVTHQGLSSPVTKSFNRGEC
# notes: mAbtyrin: wild-type IgG1 OX40SF2 with linker and R2BS29 FN3 domain at the C-terminus of the heavy chain; also called mAbtyrin
# B3: OX40SF2IgG1_R2BS29_LC-C (bispecific antibody)
# heavy: not shown
# light: DIQMTQSPSSLSASVGDRVTITCKASQDVGAAVAWYQQKPGKAPKLLIYWASTRHTGVPSRFSGSGSGTDFTLTISSLQPEDFATYYCQQYINYPLTFGGGTKVEIKRTVAAPSVFIFPPSDEQLKSGTASVVCLLNNFYPREAKVQWKVDNALQSGNSQESVTEQDSKDSTYSLSSTLTLSKADYEKHKVYACEVTHQGLSSPVTKSFNRGECGGGGSGGGGSGGGGSGGGGSMLPAPKNLVVSRVTEDSARLSWTAPDAAFDSFPIYYWEYRVGGEAIVLTVPGSERSYDLTGLKPGTEYFVYINGVKGGEESRPLSAIFTT
# notes: mAbtyrin: wild-type IgG1 OX40SF2 with linker and R2BS29 FN3 domain at the C-terminus of the light chain; also called mAbtyrin
# Molecular target: T1, human OX40 expressed on HEK-Blue: OX40 cells (human, UniProt P43489 29-277)
# T1 construct: also called CD134
# T1 sequence: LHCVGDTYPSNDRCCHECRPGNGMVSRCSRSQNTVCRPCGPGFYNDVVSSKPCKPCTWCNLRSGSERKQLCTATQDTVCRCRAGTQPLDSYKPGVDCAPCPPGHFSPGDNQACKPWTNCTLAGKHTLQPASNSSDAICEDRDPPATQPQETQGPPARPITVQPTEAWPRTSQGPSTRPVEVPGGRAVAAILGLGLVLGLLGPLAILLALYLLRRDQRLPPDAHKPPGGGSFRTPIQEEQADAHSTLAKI
# Test: flow cytometry; HEK-Blue: OX40 cells
# Outline: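 HEK-Blue Null 1 cells stably transfected with human OX40 were blocked, then incubated with mAbtyrin for 1.5 h at 4 °C. Binding was detected with a PE anti-human IgG F(ab′)₂ secondary, gating on DRAQ7-excluding live cells and taking geometric mean fluorescence. EC50 came from nonlinear regression versus log antibody concentration.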
row,Binder,EC50
1,B1,0.431 µg/mL
2,B2,0.193 µg/mL
3,B3,0.111 µg/mL

# Molecular target: T2, human FcγRIIIA (NM_000569) expressed on cells (human, UniProt P08637 17-254)
# T2 construct: Transiently expressed on Expi293F cells; also used here for FcγRIIIA on the engineered effector cells of the ADCC reporter bioassay (Promega); also called FcγIIIA
# Test: flow cytometry; Expi293F cells transfected with FcγRIIIA
# Description: (§1) Plasmids expressing cDNAs encoding human FcγRI (NM_000566) (SEQ ID NO: 44), FcγRIIA (NM_021642) (SEQ ID NO: 2), FcγRIIB (NM_004001) (SEQ ID NO: 3), and FcγRIIIA (NM_000569) (SEQ ID NO: 45) (Origene) were transiently transfected into Expi293F cells by ExpiFectamine293 transfection kit (Life Technologies). Flow cytometry assays were performed 48 h after transfection.
# (§2) 2×10⁵ cells per well were seeded in 96-well plate and blocked in BSA Stain Buffer (BD Biosciences, San Jose, USA) for 30 min at 4° C. Cells were incubated with test mAbtyrin on ice for 1.5 h at 4° C. After being washed twice with BSA stain buffer, the cells were incubated with R-PE labeled anti-human or anti-mouse IgG secondary antibody (Jackson Immunoresearch Laboratories) for 45 min at 4° C. The cells were washed twice in stain buffer and then resuspended in 150 μL of Stain Buffer containing 1:200 diluted DRAQ7 live/dead stain (Cell Signaling Technology, Danvers, USA). PE and DRAQ7 signals of the stained cells were detected by Miltenyi MACSQuant flow cytometer (Miltenyi Biotec, Auburn, USA) using B2 and B4 channel respectively. Live cells were gated on DRAQ7 exclusion and the geometric mean fluorescence signals were determined for at least 10,000 live events collected. FlowJo software (Tree Star) was used for analysis. Data was plotted as the logarithm of antibody concentration versus mean fluorescence signals. Nonlinear regression analysis was performed by GraphPad Prism 6 (GraphPad Software, Inc.) and EC₅₀ values were calculated.
# T2 sequence (P08637 17-254 limits assumed): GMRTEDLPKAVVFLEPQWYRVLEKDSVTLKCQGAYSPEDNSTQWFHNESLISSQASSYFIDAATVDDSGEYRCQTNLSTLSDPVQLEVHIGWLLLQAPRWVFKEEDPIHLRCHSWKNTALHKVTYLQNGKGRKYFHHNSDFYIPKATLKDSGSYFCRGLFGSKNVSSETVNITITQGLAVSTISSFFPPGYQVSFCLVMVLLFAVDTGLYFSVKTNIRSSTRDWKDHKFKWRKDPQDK
row,Binder,EC50
1,B1,> 10 µg/mL
2,B2,0.448 µg/mL
3,B3,0.585 µg/mL

# Molecular target: T3, human FcγRIIB (NM_004001) expressed on cells (human, UniProt P31994 43-310)
# T3 construct: Transiently expressed on Expi293F cells; also called Expi293F FcγRIIB; HEK293F cells expressing FcγRIIB
# T3 sequence: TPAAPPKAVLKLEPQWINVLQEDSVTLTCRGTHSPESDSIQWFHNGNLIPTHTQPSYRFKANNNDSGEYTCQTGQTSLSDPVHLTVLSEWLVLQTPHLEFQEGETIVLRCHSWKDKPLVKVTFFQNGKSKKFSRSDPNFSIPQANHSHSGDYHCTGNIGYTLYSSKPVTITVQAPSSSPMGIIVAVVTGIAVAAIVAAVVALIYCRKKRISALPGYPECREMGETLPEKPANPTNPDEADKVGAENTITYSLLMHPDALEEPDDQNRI
# Test: flow cytometry; Expi293F cells transfected with FcγRIIB
# Description: as §1, §2
row,Binder,EC50
1,B1,1.02 µg/mL
2,B2,0.968 µg/mL
3,B3,1 µg/mL

# Molecular target: T4, human FcγRIIA (NM_021642) expressed on cells (human, UniProt P12318 36-317)
# T4 construct: Transiently expressed on Expi293F cells; also used here for FcγRIIA on human macrophages in the ADCP assay; also called Expi293F FcγRIIA; HEK293F cells expressing FcγRIIA
# T4 sequence: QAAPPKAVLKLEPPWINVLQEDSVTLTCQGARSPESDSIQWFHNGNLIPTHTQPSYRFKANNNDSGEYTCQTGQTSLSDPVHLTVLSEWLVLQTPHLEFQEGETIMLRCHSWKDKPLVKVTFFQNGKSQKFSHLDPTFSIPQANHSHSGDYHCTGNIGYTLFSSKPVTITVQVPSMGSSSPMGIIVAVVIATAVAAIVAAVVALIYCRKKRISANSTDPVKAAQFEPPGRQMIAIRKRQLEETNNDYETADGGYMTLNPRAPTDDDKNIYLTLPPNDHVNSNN
# Test: flow cytometry; Expi293F cells transfected with FcγRIIA
# Description: as §1, §2
row,Binder,EC50
1,B1,0.046 µg/mL
2,B2,0.063 µg/mL
3,B3,0.066 µg/mL

# Molecular target: T5, FcγRIIB protein (human, UniProt P31994 43-217, biotinylated (SureLINK Biotin Kit) in the ELISA of Example 1)
# T5 sequence: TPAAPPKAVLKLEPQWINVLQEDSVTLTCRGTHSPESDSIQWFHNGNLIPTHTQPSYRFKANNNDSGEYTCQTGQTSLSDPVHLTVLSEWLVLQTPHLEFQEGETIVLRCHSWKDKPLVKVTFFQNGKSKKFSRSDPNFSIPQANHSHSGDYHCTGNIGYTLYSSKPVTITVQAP
# Test: cell-based or functional assay
Binder,"IFNγ production by activated CD4 T cells, plate-coated FcγRIIb","TNFα production by activated CD4 T cells, plate-coated FcγRIIb"
B1,72 pg/mL,29 pg/mL
B2,1370 pg/mL,250 pg/mL
B3,177 pg/mL,37 pg/mL

# Molecular target: T6, FcγRIIA protein (human, UniProt P12318 36-217, biotinylated (SureLINK Biotin Kit) in the ELISA of Example 1)
# T6 sequence: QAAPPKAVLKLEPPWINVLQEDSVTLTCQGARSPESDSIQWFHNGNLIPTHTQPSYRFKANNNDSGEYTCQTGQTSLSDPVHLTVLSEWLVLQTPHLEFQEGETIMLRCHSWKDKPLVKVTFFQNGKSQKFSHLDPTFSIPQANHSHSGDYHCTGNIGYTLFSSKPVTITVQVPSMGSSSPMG
# Test: cell-based or functional assay
Binder,"IFNγ production by activated CD4 T cells, plate-coated FcγRIIA","TNFα production by activated CD4 T cells, plate-coated FcγRIIA"
B1,103 pg/mL,29 pg/mL
B2,1760 pg/mL,335 pg/mL
B3,125 pg/mL,33 pg/mL

# Molecular target: T2, human FcγRIIIA (NM_000569) expressed on …
# Test: cell-based or functional assay
row,Binder,ADCC (fold activation) at 1 µg/ml
1,B1,1 fold
2,B2,9 fold
3,B3,9 fold

# Molecular target: T4, human FcγRIIA (NM_021642) expressed on …
# Test: cell-based or functional assay
row,Binder,ADCP EC50
1,B1,0.0089 µg/mL
2,B2,0.0318 µg/mL
3,B3,0.0151 µg/mL

# Molecular target: T3, human FcγRIIB (NM_004001) expressed on …
# Test: flow cytometry; Raji cells (express predominantly FcγRIIB)
# Description: as §2
# Raji cell is a cell line derived from B cells that express predominantly FcγRIIB. The binding of mAbtyrins on Raji cells were investigated by flow cytometry assay described for testing mAbtyrin binding to FcγR. Binding of the mAbtyrins were detected by flow cytometry using a PE-labeled Goat F(ab′) against Human IgG(γ).
row,Binder,EC50
1,B1,3.37 µg/mL
2,B2,1.27 µg/mL
3,B3,3.3 µg/mL

# Molecular target: T3, human FcγRIIB (NM_004001) expressed on …
# Test: cell-based or functional assay
row,Binder,% activity at 1 µg/ml with Raji cells (HEK-Blue: OX40 NF-κB reporter)
1,B1,11%
2,B2,90%
3,B3,76%

# Molecular target: T7, human FcγRI (NM_000566) expressed on cells (human, UniProt P12314 16-374)
# T7 construct: Transiently expressed on Expi293F cells
# Test: flow cytometry; Expi293F cells transfected with FcγRI
# Description: as §1, §2
# T7 sequence (P12314 16-374 limits assumed): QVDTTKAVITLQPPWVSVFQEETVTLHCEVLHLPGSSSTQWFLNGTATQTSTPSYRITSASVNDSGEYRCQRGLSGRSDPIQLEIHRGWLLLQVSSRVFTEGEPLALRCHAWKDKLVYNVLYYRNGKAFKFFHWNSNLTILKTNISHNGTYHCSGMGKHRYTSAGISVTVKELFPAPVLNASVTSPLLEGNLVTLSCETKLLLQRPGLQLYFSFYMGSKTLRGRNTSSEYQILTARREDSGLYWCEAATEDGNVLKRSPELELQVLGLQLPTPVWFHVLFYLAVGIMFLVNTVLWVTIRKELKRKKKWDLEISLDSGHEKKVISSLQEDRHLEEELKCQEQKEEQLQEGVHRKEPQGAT
row,Binder,EC50
1,B1,> 10 µg/mL
2,B2,0.586 µg/mL
3,B3,0.397 µg/mL
